# Test results taken from patent US20240350682A1 (FUSION PHARMACEUTICALS, published 2024).
# T1: six-transmembrane epithelial antigen of prostate-2 (STEAP2) (human, UniProt Q8NFT2 1-490)
# T1 construct: Endogenous STEAP2 on prostate cancer cell lines (LNCaP, C4-2, 22RV1); also called STEAP2 receptor
# T1 sequence: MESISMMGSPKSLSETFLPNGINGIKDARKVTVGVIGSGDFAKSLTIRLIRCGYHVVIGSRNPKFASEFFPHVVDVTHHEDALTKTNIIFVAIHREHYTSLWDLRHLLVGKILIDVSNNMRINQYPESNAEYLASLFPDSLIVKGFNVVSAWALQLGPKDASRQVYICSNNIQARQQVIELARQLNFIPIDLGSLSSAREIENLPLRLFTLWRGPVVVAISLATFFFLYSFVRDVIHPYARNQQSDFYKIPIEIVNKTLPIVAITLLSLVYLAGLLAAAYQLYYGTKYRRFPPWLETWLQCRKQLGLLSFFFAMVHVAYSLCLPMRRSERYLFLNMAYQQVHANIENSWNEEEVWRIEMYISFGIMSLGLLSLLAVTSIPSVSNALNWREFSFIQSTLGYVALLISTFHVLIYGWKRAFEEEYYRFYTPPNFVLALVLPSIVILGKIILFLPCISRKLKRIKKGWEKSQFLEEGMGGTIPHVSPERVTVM
# Experiments:
# [1] = target: T1, six-transmembrane epithelial antigen of …; experiment: cell binding on LNCaP cells
# [2] = target: T1, six-transmembrane epithelial antigen of …; experiment: cell-based binding on LNCaP cells
# [3] = target: T1, six-transmembrane epithelial antigen of …; experiment: radioligand saturation binding on C4-2 cells, single-site fit of specific binding
# Description: (§1) The purpose of this assay was to ensure that the radioimmunoconjugates maintained the binding characteristics of the native antibody in STEAP2 expressing cell lines including C4-2, 22RV1 and LNCaP. One day prior to the experiment, cells (1.5-2×10⁵) were seeded in 48-well microplates in 500 μL supplemented medium. At the start of the assay, cells were washed with PBS once and then treated with either Binding Buffer or 5 μM cold antibody [total binding (TB) and non-specific binding (NSB) respectively]. Plates were incubated at 4° C. for about one hour with mild shaking. Following incubation, both […] and NSB cells were treated with increasing concentrations of [¹⁷⁷Lu]-STEAP2 (40A3-LO11) or [¹⁷⁷Lu]-STEAP2 (40A3-LO14) (0.098 nM to 50 nM) and were incubated at 4° C. for about two hours with mild shaking.
# (§2) Following incubation, the cells were washed twice with PBS and were then lysed with 1% Triton-X-100. The lysates were transferred to gamma counting tubes and run along with the standard of [¹⁷⁷Lu]-STEAP2 (40A3-LO11) or [¹⁷⁷Lu]-STEAP2 (40A3-LO14) on the Wizard 1470 gamma counter to determine the amount of radioactivity in counts per minute (CPM) for each lysate. The remaining lysate from each well (25 μL) was used for analyzing the protein content using a standard protein quantification assay.
# [4] = target: T1, six-transmembrane epithelial antigen of …; experiment: radioligand saturation binding on 22RV1 cells, single-site fit of specific binding
# Description: as §1, §2
# [5] = target: T1, six-transmembrane epithelial antigen of …; experiment: radioligand saturation binding on LNCaP cells, single-site fit of specific binding
# Description: as §1, §2
# [6] = target: T1, six-transmembrane epithelial antigen of …; experiment: saturation radioligand binding on C4-2 cells (4 °C); specific = total minus nonspecific binding in the presence of excess unlabeled antibody; single-site fit
# Description: as §1, §2
# [7] = target: T1, six-transmembrane epithelial antigen of …; experiment: saturation radioligand binding on 22RV1 cells (4 °C); specific = total minus nonspecific binding in the presence of excess unlabeled antibody; single-site fit
# Description: as §1, §2
# [8] = target: T1, six-transmembrane epithelial antigen of …; experiment: saturation radioligand binding on LNCaP cells (4 °C); specific = total minus nonspecific binding in the presence of excess unlabeled antibody; single-site fit
# Description: as §1, §2
Binder,EC50 [1] [nM],fold improvement in binding relative to 40A3-LO7 [2] [fold],Kd [3] [nM],Kd [4] [nM],Kd [5] [nM],Kd [6] [nM],Kd [7] [nM],Kd [8] [nM]
"40A3-LO14 (IgG1-TM) (antibody, V domains shown, Human IgG1 kappa with reduced effector function (IgG1-TM); also called 40A3GL-LO14; 40A3-LO14 hIgG-TM) VH: QVQLQQSGPGLVKPSQTLSLTCAISGDSVSRNSAVWNWIRQSPSRGLEWLGRTYYRSKWYNDYAPSVKSRITINPDTSKNQFSLQLNSVTPEDTAVYYCARGLRQNQFYYYMDVWGKGTTVTVSS VL: not shown",1.67,26,–,–,–,–,–,–
"40A3-LO11 (IgG1-TM) (antibody, V domains shown) VH: QVQLQQSGPGLVKPSQTLSLTCAISGDSVSRNSAVWNWIRQSPSRGLEWLGRTYYRSKWYNDYAPSVKSRITINPDTSKNQFSLQLNSVTPEDTAVYYCARGLLQNQFYYYMDVWGKGTTVTVSS VL: not shown",2.38,–,–,–,–,–,–,–

# The remaining lines, values ahead:
EC50 [1] [nM],fold improvement in binding relative to 40A3-LO7 [2] [fold],Kd [3] [nM],Kd [4] [nM],Kd [5] [nM],Kd [6] [nM],Kd [7] [nM],Kd [8] [nM],Binder
–,–,~2.8,~3.2,~0.79,2.82,3.26,–,"[177Lu]-STEAP2 (40A3-LO14) (antibody, human IgG1, kappa, V domains shown, 177Lu complex of the DOTA chelate of Compound C (PEG3 linker) conjugated to the antibody through its tetrafluorophenyl ester; sites and chain not stated; typical chelate to antibody ratios 5-5.5, also called [177Lu]-Compound C-anti-STEAP2 conjugate; [177Lu]-DOTA-anti-STEAP2 conjugate) VH: QVQLQQSGPGLVKPSQTLSLTCAISGDSVSRNSAVWNWIRQSPSRGLEWLGRTYYRSKWYNDYAPSVKSRITINPDTSKNQFSLQLNSVTPEDTAVYYCARGLRQNQFYYYMDVWGKGTTVTVSS VL: not shown"
–,–,~6.9,~6.7,~1.2,6.58,6.77,1.24,"[177Lu]-STEAP2 (40A3-LO11) (antibody, human IgG1, kappa, V domains shown, 177Lu complex of the DOTA chelate of Compound C (PEG3 linker) conjugated to the antibody; sites, chain and ratio not stated for this antibody, Radioimmunoconjugate of 40A3-LO11; also called [177Lu]-Compound C-anti-STEAP2 conjugate) VH: QVQLQQSGPGLVKPSQTLSLTCAISGDSVSRNSAVWNWIRQSPSRGLEWLGRTYYRSKWYNDYAPSVKSRITINPDTSKNQFSLQLNSVTPEDTAVYYCARGLLQNQFYYYMDVWGKGTTVTVSS VL: not shown"
